Data set [1] deals with VchCAST RNA-guided transposition machinery (E. coli BL21(DE3) host, lacZ target). In words: relative integration efficiency (T-RL orientation) vs wild-type transposon end (log2 (normalized fold change)); transposon end mutated: right end (5 bp flank + 75 bp right end); higher = more efficient transposition. In a few lines: (§1)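 Relative integration efficiency is a fold change of output over input barcode abundance, normalised to reference barcodes and log-transformed. Input plasmids and genomic integration junctions were PCR-amplified and Illumina-sequenced from E. coli BL21(DE3) co-transformed with a T7-driven effector plasmid and pUC57 donor pools of 1549 left-end or 1849 right-end transposon variants. Plating was done with 0.1 mM IPTG at 37°C for 18 h, with two biological output replicates and four reference barcodes.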

For data set [2] the test system is unchanged. In words: relative integration efficiency (T-LR orientation) vs wild-type transposon end (log2 (normalized fold change)); transposon end mutated: right end (5 bp flank + 75 bp right end); higher = more efficient transposition. In a few lines:
as §1

± gives the standard deviation of the averaged measurements.

With “ACATTTGTTGATACAACCATAAAATGTATTTTACACCCATAAATTGATAATTATCACACCCATAAATTGATATTGCCTCTGATCATAGTCAGACCAACATTGCTACGACCCGTATTCGCACCGACAC”, the “relative integration efficiency (log2)” value is -0.938 ± 0.035 in data set [1] and -0.626 ± 0.31 in data set [2].

Regarding “ACATTTGTTGATACAACCATAAAATGTTAATTACACCCATAAATTGTTAATTATCACACCCATAAATTGTTATTGCCTCTGATCATAGTCAGACCAACATTGCTACGACCCGTATTCGCACCGACAC”, the “relative integration efficiency (log2)” value in data set [1] was -2.33 ± 0.29; in data set [2] it was -0.437 ± 0.34.

On to “ACATTTGTTGATACAACCATAAAATTATAATTACACCCATAAATTTATAATTATCACACCCATAAATTTATATTGCCTCTGATCATAGTCAGACCAACATTGCTACGACCCGTATTCGCACCGACAC”, for which the “relative integration efficiency (log2)” value in data set [1] is -1.23 ± 0.3; in data set [2], 0.398 ± 0.67.

Consider “ACATTTGTTGATACAACCATAAAATTATTATTACACCCATTAATTGATAATTATCACACCCAATTTAACTATAACGCTCTGATCATAGTCAGACCAACATTGCTACGACCCGTATTCGCACCGACAC”, for which the figures for the “relative integration efficiency (log2)” value in data set [1] and in data set [2] were -2.35 ± 0.18 and 1.15 ± 0.09, respectively.

Take “ACATTTGTTGATACAACCATAAAATTCGCATTACACCCATAAATTGATAATTATCACACCCATAAATTGATATTGCCTCTGATCATAGTCAGACCAACATTGCTACGACCCGTATTCGCACCGACAC”: the results for the “relative integration efficiency (log2)” value in data set [1] and in data set [2] were -2.95 ± 0.25 and -2.45 ± 0.2, respectively.

Consider “ACATTTGTTGATACAACCATAAAATTCGCCGGCACAAACGCCCGGTCGCCGGCGACACAAACGCCCGGTCGCGGTAAGAGGATCATAGTCAGACCAACATTGCTACGACCCGTATTCGCACCGACAC”, for which the “relative integration efficiency (log2)” value in data set [1] is -4.45 ± 0.73; in data set [2], -0.949 ± 0.46.

As for “ACATTTGTTGATACAACCATAAAATTCTAATTACACCCATAAATTGATAATTATCACACCCATAAATTGATATTGCCTCTGATCATAGTCAGACCAACATTGCTACGACCCGTATTCGCACCGACAC”, the results for the “relative integration efficiency (log2)” value in data set [1] and in data set [2] were -1.85 ± 0.18 and -1.38 ± 0.16, respectively.

As for “ACATTTGTTGATACAACCATAAACGGATAATTACACCCATAAATTGATAATTATCACACCCATAAATTGATATTGCCTCTGATCATAGTCAGACCAACATTGCTACGACCCGTATTCGCACCGACAC”, the results for the “relative integration efficiency (log2)” value in data set [1] and in data set [2] were -0.642 ± 0.01 and -0.722 ± 0.72, respectively.

With “ACATTTGTTGATACAACCATAAACGTCTAATTACACCCATAAATTGATAATTATCACACCCATAAATTGATATTGCCTCTGATCATAGTCAGACCAACATTGCTACGACCCGTATTCGCACCGACAC”, the results for the “relative integration efficiency (log2)” value in data set [1] and in data set [2] were -2.72 ± 0.083 and -2.25 ± 0.11, respectively.

Consider “ACATTTGTTGATACAACCATAAACTGATAATTACACCCATAAAGTGATAATTATCACACCCATAAAGTGATATTGCCTCTGATCATAGTCAGACCAACATTGCTACGACCCGTATTCGCACCGACAC”, for which the “relative integration efficiency (log2)” value in data set [1] turned out to be 0.368 ± 0.095; in data set [2] it was 0.264 ± 0.12.

Consider “ACATTTGTTGATACAACCATAAAGTGATATTTACAACCATAAAATGATAATTATCACAACCATAAAATGATAATTACTCTGATCATAGTCAGACCAACATTGCTACGACCCGTATTCGCACCGACAC”, for which the “relative integration efficiency (log2)” value was determined as 0.174 ± 0.1 in data set [1] and 0.0497 ± 0.074 in data set [2].

With “ACATTTGTTGATACAACCATAAAGTGATATTTACAACCATAAAATGATAATTATCACAACCATAAAGTGATATTTACTCTGATCATAGTCAGACCAACATTGCTACGACCCGTATTCGCACCGACAC”, the “relative integration efficiency (log2)” value is 0.0289 ± 0.14 in data set [1] and 0.103 ± 0.36 in data set [2].

For “ACATTTGTTGATACAACCATAAAGTGATATTTACAACCATAAAATGATAATTATCACAACCATAAGTTGATATTTTCTCTGATCATAGTCAGACCAACATTGCTACGACCCGTATTCGCACCGACAC”, the “relative integration efficiency (log2)” value in data set [1] was 0.113 ± 0.034; in data set [2], -0.0726 ± 0.055.

For “ACATTTGTTGATACAACCATAAAGTGATATTTACAACCATAAAATGATAATTATCACAACCATATATTGATATCTCCTCTGATCATAGTCAGACCAACATTGCTACGACCCGTATTCGCACCGACAC”, the “relative integration efficiency (log2)” value in data set [1] is -0.261 ± 0.13; in data set [2] it was -0.163 ± 0.73.

For the sequence “ACATTTGTTGATACAACCATAAAGTGATATTTACAACCATAAAATGATAATTATCACACCCATAAATTGATAATTACTCTGATCATAGTCAGACCAACATTGCTACGACCCGTATTCGCACCGACAC”, the “relative integration efficiency (log2)” value is 0.346 ± 0.076 in data set [1] and 0.307 ± 0.068 in data set [2].

Take “ACATTTGTTGATACAACCATAAAGTGATATTTACAACCATAAAATGATAATTATCACACCCATAAATTGATATTGCCTCTGATCATAGTCAGACCAACATTGCTACGACCCGTATTCGCACCGACAC”: the “relative integration efficiency (log2)” value in data set [1] was -0.00564 ± 0.04; in data set [2] it was -0.097 ± 0.68.

Take “ACATTTGTTGATACAACCATAAAGTGATATTTACAACCATAAAATGATAATTATCAGTGGGTATTTAACTATAACGCTCTGATCATAGTCAGACCAACATTGCTACGACCCGTATTCGCACCGACAC”: the “relative integration efficiency (log2)” value was -0.714 ± 0.27 in data set [1] and 2.86 ± 0.12 in data set [2].

“ACATTTGTTGATACAACCATAAAGTGATATTTACAACCATAAAGTGATATTTATCACAACCATAAAATGATAATTACTCTGATCATAGTCAGACCAACATTGCTACGACCCGTATTCGCACCGACAC”: the “relative integration efficiency (log2)” value in data set [1] was 0.0579 ± 0.16; in data set [2], 0.11 ± 0.34.

Turning to “ACATTTGTTGATACAACCATAAAGTGATATTTACAACCATAAAGTGATATTTATCACAACCATAAAGTGATATTTACTCTGATCATAGTCAGACCAACATTGCTACGACCCGTATTCGCACCGACAC”, the “relative integration efficiency (log2)” value in data set [1] turned out to be 0.0208 ± 0.11; in data set [2] it was 0.061 ± 0.087.

As for “ACATTTGTTGATACAACCATAAAGTGATATTTACAACCATAAAGTGATATTTATCACAACCATAAGTTGATATTTTCTCTGATCATAGTCAGACCAACATTGCTACGACCCGTATTCGCACCGACAC”, the figures for the “relative integration efficiency (log2)” value in data set [1] and in data set [2] were 0.0887 ± 0.14 and -0.279 ± 0.16, respectively.

With “ACATTTGTTGATACAACCATAAAGTGATATTTACAACCATAAAGTGATATTTATCACAACCATATATTGATATCTCCTCTGATCATAGTCAGACCAACATTGCTACGACCCGTATTCGCACCGACAC”, the “relative integration efficiency (log2)” value in data set [1] turned out to be 0.115 ± 0.19; in data set [2], 0.458 ± 0.14.

“ACATTTGTTGATACAACCATAAAGTGATATTTACAACCATAAAGTGATATTTATCACACCCATAAATTGATAATTACTCTGATCATAGTCAGACCAACATTGCTACGACCCGTATTCGCACCGACAC”: the “relative integration efficiency (log2)” value amounted to 0.0651 ± 0.0083 in data set [1] and 0.289 ± 0.082 in data set [2].

Take “ACATTTGTTGATACAACCATAAAGTGATATTTACAACCATAAAGTGATATTTATCACACCCATAAATTGATATTGCCTCTGATCATAGTCAGACCAACATTGCTACGACCCGTATTCGCACCGACAC”: the entries for the “relative integration efficiency (log2)” value in data set [1] and in data set [2] were -0.0388 ± 0.082 and -0.0332 ± 0.27, respectively.

“ACATTTGTTGATACAACCATAAAGTGATATTTACAACCATAAAGTGATATTTATCAGTGGGTATTTAACTATAACGCTCTGATCATAGTCAGACCAACATTGCTACGACCCGTATTCGCACCGACAC”: the “relative integration efficiency (log2)” value is -0.497 ± 0.26 in data set [1] and 2.91 ± 0.034 in data set [2].

For “ACATTTGTTGATACAACCATAAAGTGATATTTACAACCATAAGTTGATATTTTTCACAACCATAAAATGATAATTACTCTGATCATAGTCAGACCAACATTGCTACGACCCGTATTCGCACCGACAC”, the “relative integration efficiency (log2)” value is -0.0427 ± 0.12 in data set [1] and 0.217 ± 0.045 in data set [2].

Regarding “ACATTTGTTGATACAACCATAAAGTGATATTTACAACCATAAGTTGATATTTTTCACAACCATAAAGTGATATTTACTCTGATCATAGTCAGACCAACATTGCTACGACCCGTATTCGCACCGACAC”, the entries for the “relative integration efficiency (log2)” value in data set [1] and in data set [2] were 0.0395 ± 0.16 and 0.0534 ± 0.15, respectively.

As for “ACATTTGTTGATACAACCATAAAGTGATATTTACAACCATAAGTTGATATTTTTCACAACCATAAGTTGATATTTTCTCTGATCATAGTCAGACCAACATTGCTACGACCCGTATTCGCACCGACAC”, the “relative integration efficiency (log2)” value stood at 0.36 ± 0.12 in data set [1] and 0.284 ± 0.16 in data set [2].

With “ACATTTGTTGATACAACCATAAAGTGATATTTACAACCATAAGTTGATATTTTTCACAACCATATATTGATATCTCCTCTGATCATAGTCAGACCAACATTGCTACGACCCGTATTCGCACCGACAC”, the “relative integration efficiency (log2)” value in data set [1] worked out at 0.0944 ± 0.13; in data set [2] it was 0.346 ± 0.17.

Consider “ACATTTGTTGATACAACCATAAAGTGATATTTACAACCATAAGTTGATATTTTTCACACCCATAAATTGATAATTACTCTGATCATAGTCAGACCAACATTGCTACGACCCGTATTCGCACCGACAC”, for which the results for the “relative integration efficiency (log2)” value in data set [1] and in data set [2] were -0.192 ± 0.21 and 0.0675 ± 0.11, respectively.

On to “ACATTTGTTGATACAACCATAAAGTGATATTTACAACCATAAGTTGATATTTTTCACACCCATAAATTGATATTGCCTCTGATCATAGTCAGACCAACATTGCTACGACCCGTATTCGCACCGACAC”, for which the results for the “relative integration efficiency (log2)” value in data set [1] and in data set [2] were -0.0454 ± 0.018 and 0.319 ± 0.19, respectively.

In the case of “ACATTTGTTGATACAACCATAAAGTGATATTTACAACCATAAGTTGATATTTTTCAGTGGGTATTTAACTATAACGCTCTGATCATAGTCAGACCAACATTGCTACGACCCGTATTCGCACCGACAC”, the entries for the “relative integration efficiency (log2)” value in data set [1] and in data set [2] were -0.682 ± 0.18 and 2.73 ± 0.16, respectively.

On to “ACATTTGTTGATACAACCATAAAGTGATATTTACAACCATATATTGATATCTCTCACAACCATAAAATGATAATTACTCTGATCATAGTCAGACCAACATTGCTACGACCCGTATTCGCACCGACAC”, for which the “relative integration efficiency (log2)” value is -0.337 ± 0.17 in data set [1] and -0.162 ± 0.091 in data set [2].

For the origin of these results see the supplement of paper PMC10201428.
